Measured values taken from patent US20240400614A1, “CLEAVABLE PEPTIDES AND METHODS OF USE THEREOF” (Bright Peak Therapeutics AG, priority 2023, published 2024).
Square brackets hold non-standard residues; d marks the D form. Ends that are not written are not given here. Tyr(3-NO2) = N[C@@H](Cc1ccc(O)c([N+](=O)[O-])c1)C(=O)O; Nle = CCCC[C@H](N)C(=O)O; 2Abz = Nc1ccccc1C(=O)O

Key:
Assay type in all cases: biochemical
matriptase = biological target: T1, matriptase (Homo sapiens, UniProt Q9Y5Y6); assay: FRET peptide cleavage efficiency with matriptase; details: standard conditions (Table 8)
T1 construct: purchased R&D Systems 3946-SEB
T1 sequence (Q9Y5Y6 615-855 limits assumed): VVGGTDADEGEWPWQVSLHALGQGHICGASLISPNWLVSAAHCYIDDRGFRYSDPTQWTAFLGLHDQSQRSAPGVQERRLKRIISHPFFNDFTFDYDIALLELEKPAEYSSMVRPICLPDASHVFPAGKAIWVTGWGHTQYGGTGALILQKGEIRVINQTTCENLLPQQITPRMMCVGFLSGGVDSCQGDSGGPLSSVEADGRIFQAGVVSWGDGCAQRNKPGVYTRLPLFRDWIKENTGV

uPA = uPA (Homo sapiens, UniProt P00749); assay: FRET peptide cleavage efficiency with uPA; details: standard conditions (Table 8)
MMP-7 = biological target: T2, MMP-7 (Homo sapiens, UniProt P09237); assay: FRET peptide cleavage efficiency with MMP-7 (standard pH 7.5; also pH 6.5)
T2 construct: purchased SIGMA CC1059
T2 sequence (P09237 95-267): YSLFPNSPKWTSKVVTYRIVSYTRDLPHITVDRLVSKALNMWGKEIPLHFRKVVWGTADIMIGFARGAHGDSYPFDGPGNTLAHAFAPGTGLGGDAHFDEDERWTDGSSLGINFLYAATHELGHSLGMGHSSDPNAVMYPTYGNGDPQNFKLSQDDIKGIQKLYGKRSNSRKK

MMP-9 = biological target: T3, MMP-9 (Homo sapiens, UniProt P14780); assay: FRET peptide cleavage efficiency with MMP-9 (standard pH 7.5; also pH 6.5)
T3 construct: purchased SIGMA PF024

MMP-2 = biological target: T4, MMP-2 (Homo sapiens, UniProt P08253); assay: FRET peptide cleavage efficiency with MMP-2; details: for % cleavage MMP-2 t = 15 min: t = 15 min (Table 9)
T4 construct: purchased SIGMA PF023
T4 sequence (P08253 110-660): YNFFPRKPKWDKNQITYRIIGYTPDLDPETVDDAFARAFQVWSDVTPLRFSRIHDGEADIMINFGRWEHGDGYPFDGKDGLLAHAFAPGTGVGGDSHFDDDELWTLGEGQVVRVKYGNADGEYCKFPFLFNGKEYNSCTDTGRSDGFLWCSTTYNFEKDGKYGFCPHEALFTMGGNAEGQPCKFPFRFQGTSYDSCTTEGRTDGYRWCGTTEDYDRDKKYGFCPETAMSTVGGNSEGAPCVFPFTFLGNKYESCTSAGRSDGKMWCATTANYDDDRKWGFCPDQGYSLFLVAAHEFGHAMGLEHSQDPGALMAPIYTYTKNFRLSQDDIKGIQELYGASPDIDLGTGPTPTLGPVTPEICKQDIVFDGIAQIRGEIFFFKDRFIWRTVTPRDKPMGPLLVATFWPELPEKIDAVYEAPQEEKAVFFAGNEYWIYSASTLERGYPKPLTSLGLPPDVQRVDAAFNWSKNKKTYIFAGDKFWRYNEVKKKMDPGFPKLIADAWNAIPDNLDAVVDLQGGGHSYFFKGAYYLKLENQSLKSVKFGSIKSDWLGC

[1] = t = 15 min, standard conditions (Table 8)
[2] = t = 60 min, standard conditions (Table 8)
[3] = t = 120 min, standard conditions (Table 8)

T3 sequence (P14780 94-707): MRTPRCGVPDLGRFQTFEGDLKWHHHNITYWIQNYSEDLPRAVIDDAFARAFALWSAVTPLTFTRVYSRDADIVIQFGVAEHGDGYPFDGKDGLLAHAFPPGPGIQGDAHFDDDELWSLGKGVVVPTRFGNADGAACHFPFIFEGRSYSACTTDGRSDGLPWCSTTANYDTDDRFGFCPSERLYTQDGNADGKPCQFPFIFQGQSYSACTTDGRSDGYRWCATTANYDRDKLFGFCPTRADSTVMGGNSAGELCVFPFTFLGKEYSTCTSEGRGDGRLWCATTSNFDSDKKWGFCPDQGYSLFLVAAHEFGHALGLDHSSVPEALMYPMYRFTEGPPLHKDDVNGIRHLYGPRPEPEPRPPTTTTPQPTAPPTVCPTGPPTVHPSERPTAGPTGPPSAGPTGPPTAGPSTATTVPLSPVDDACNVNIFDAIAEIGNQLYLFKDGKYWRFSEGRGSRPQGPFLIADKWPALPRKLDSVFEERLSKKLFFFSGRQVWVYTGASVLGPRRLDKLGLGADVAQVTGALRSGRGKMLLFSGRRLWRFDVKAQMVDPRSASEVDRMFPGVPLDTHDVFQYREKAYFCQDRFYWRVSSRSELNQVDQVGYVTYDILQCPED

| % cleavage Matriptase t = 15 min (matriptase) [%] | % cleavage Matriptase t = 60 min (matriptase) [%] | % cleavage Matriptase t = 120 min (matriptase) [%] | % vcleavage uPA t = 15 min (uPA) [%] | % cleavage uPA t = 60 min (uPA) [%] | % cleavage uPA t = 120 min (uPA) [%] | % cleavage MMP-7 t = 15 min (MMP-7; t = 15 min (Table 9)) [%] | % cleavage MMP-7 t = 15 min (MMP-7; [1]) [%] | % cleavage MMP-7 t = 60 min (MMP-7; t = 60 min (Table 9)) [%] | % cleavage MMP-7 t = 60 min (MMP-7; [2]) [%] | % cleavage MMP-7 t = 120 min (MMP-7; t = 120 min (Table 9)) [%] | % cleavage MMP-7 t = 120 min (MMP-7; [3]) [%] | % cleavage MMP-9 t = 15 min (MMP-9; t = 15 min (Table 9)) [%] | % cleavage MMP-9 t = 15 min (MMP-9; [1]) [%] | % cleavage MMP-9 t = 60 min (MMP-9; t = 60 min (Table 9)) [%] | % cleavage MMP-9 t = 60 min (MMP-9; [2]) [%] | % cleavage MMP-9 t = 120 min (MMP-9; t = 120 min (Table 9)) [%] | % cleavage MMP-9 t = 120 min (MMP-9; [3]) [%] | % cleavage MMP-2 t = 15 min (MMP-2) [%] | % cleavage MMP-2 t = 60 min (MMP-2; t = 60 min (Table 9)) [%] | Substance | further results |
| --- | --- | --- | --- | --- | --- | --- | --- | --- | --- | --- | --- | --- | --- | --- | --- | --- | --- | --- | --- | --- | --- |
| 100 | 100 | 100 | 0 | 0 | 0 | 32 | 32 | 89 | 89 | 100 | 100 | 100 | 100 | 100 | 100 | 100 | 100 | 92 | 100 | RGRKSPANLVG ([2Abz]RGRKSPANLVG[Tyr(3-NO2)]-NH2) [LNK034] | % cleavage MMP-2 t = 60 min (MMP-2; [2]): 100%; % cleavage MMP-2 t = 120 min (MMP-2; t = 120 min (Table 9)): 100%; % cleavage MMP-2 t = 120 min (MMP-2; [3]): 100% |
| 100 | 100 | 100 | 0 | 0 | 0 | 29 | 29 | 74 | 74 | 93 | 93 | 25 | 25 | 69 | 69 | 89 | 89 | 8 | 28 | RGRKSPQPLVD ([2Abz]RGRKSPQPLVD[Tyr(3-NO2)]-NH2) [LNK040] | % cleavage MMP-2 t = 60 min (MMP-2; [2]): 28%; % cleavage MMP-2 t = 120 min (MMP-2; t = 120 min (Table 9)): 47%; % cleavage MMP-2 t = 120 min (MMP-2; [3]): 47% |

The remaining lines, values behind:

| Substance | % cleavage Matriptase t = 15 min (matriptase) [%] | % cleavage Matriptase t = 60 min (matriptase) [%] | % cleavage Matriptase t = 120 min (matriptase) [%] | % vcleavage uPA t = 15 min (uPA) [%] | % cleavage uPA t = 60 min (uPA) [%] | % cleavage uPA t = 120 min (uPA) [%] | % cleavage MMP-7 t = 15 min (MMP-7; t = 15 min (Table 9)) [%] | % cleavage MMP-7 t = 15 min (MMP-7; [1]) [%] | % cleavage MMP-7 t = 60 min (MMP-7; t = 60 min (Table 9)) [%] | % cleavage MMP-7 t = 60 min (MMP-7; [2]) [%] | % cleavage MMP-7 t = 120 min (MMP-7; t = 120 min (Table 9)) [%] | % cleavage MMP-7 t = 120 min (MMP-7; [3]) [%] | % cleavage MMP-9 t = 15 min (MMP-9; t = 15 min (Table 9)) [%] | % cleavage MMP-9 t = 15 min (MMP-9; [1]) [%] | % cleavage MMP-9 t = 60 min (MMP-9; t = 60 min (Table 9)) [%] | % cleavage MMP-9 t = 60 min (MMP-9; [2]) [%] | % cleavage MMP-9 t = 120 min (MMP-9; t = 120 min (Table 9)) [%] | % cleavage MMP-9 t = 120 min (MMP-9; [3]) [%] | % cleavage MMP-2 t = 15 min (MMP-2) [%] | % cleavage MMP-2 t = 60 min (MMP-2; t = 60 min (Table 9)) [%] | further results |
| --- | --- | --- | --- | --- | --- | --- | --- | --- | --- | --- | --- | --- | --- | --- | --- | --- | --- | --- | --- | --- | --- |
| RGRKPQPLVD ([2Abz]RGRKPQPLVD[Tyr(3-NO2)]-NH2) [LNK039] | 77 | 100 | 100 | 0 | 0 | 0 | 35 | 35 | 80 | 80 | 96 | 96 | 25 | 25 | 74 | 74 | 94 | 94 | 10 | 38 | % cleavage MMP-2 t = 60 min (MMP-2; [2]): 38%; % cleavage MMP-2 t = 120 min (MMP-2; t = 120 min (Table 9)): 61%; % cleavage MMP-2 t = 120 min (MMP-2; [3]): 61% |
| RGRKPY-Nle-LQG ([2Abz]RGRKPY[Nle]LQG[Tyr(3-NO2)]-NH2) [LNK036] | 76 | 100 | 100 | 0 | 0 | 0 | 34 | 34 | 88 | 88 | 100 | 100 | 28 | 28 | 87 | 87 | 100 | 100 | 27 | 70 | % cleavage MMP-2 t = 60 min (MMP-2; [2]): 70%; % cleavage MMP-2 t = 120 min (MMP-2; t = 120 min (Table 9)): 88%; % cleavage MMP-2 t = 120 min (MMP-2; [3]): 88% |
| RGRKPYMLQG ([2Abz]RGRKPYMLQG[Tyr(3-NO2)]-NH2) [LNK035] | 67 | 100 | 100 | 0 | 0 | 0 | 28 | 28 | 80 | 80 | 95 | 95 | 42 | 42 | 100 | 100 | 100 | 100 | 33 | 77 | % cleavage MMP-2 t = 60 min (MMP-2; [2]): 77%; % cleavage MMP-2 t = 120 min (MMP-2; t = 120 min (Table 9)): 91%; % cleavage MMP-2 t = 120 min (MMP-2; [3]): 91% |
